Reference: patent US20240092867A1 (UNIVERSITY OF CHICAGO, published 2024)

T1: recombinant laminin α3 2928-3150 protein (linker domain and LG4 domain) (human, UniProt Q16787 2928-3150)
T1 construct: range 2928-3150; Made in HEK-293F cells; also called laminin alpha 3 LG domain recombinant protein
T1 sequence: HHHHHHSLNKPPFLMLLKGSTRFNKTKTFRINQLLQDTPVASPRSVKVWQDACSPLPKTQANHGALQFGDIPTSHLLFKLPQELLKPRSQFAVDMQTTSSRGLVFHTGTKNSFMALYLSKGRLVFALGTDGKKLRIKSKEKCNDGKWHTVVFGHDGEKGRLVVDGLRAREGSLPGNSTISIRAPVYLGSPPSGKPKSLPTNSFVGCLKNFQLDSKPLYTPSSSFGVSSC

T2: placental growth factor (PlGF)-2 (human, UniProt P49763-3 19-170)
T2 construct: mature; Purchased in mature form
T2 sequence (looked up): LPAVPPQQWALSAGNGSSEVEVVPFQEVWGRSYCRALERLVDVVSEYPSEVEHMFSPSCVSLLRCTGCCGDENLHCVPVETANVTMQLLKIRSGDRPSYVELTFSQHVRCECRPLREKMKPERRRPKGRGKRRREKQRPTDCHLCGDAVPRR

T3: vascular endothelial growth factor (VEGF)-A121 (human, UniProt P15692-9 27-147)
T3 construct: mature; Purchased in mature form, not glycosylated
T3 sequence (looked up): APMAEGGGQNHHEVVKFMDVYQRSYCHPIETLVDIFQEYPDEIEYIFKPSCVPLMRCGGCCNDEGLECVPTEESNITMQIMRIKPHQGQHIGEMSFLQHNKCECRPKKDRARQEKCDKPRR

B1: placental growth factor (PlGF)-1 (ligand, human, UniProt P49763-2 19-149, looked up)
chain: LPAVPPQQWALSAGNGSSEVEVVPFQEVWGRSYCRALERLVDVVSEYPSEVEHMFSPSCVSLLRCTGCCGDENLHCVPVETANVTMQLLKIRSGDRPSYVELTFSQHVRCECRPLREKMKPERCGDAVPRR
notes: mature; Purchased in mature form
B2: FabCol-LamLG4 recombinant fusion protein (Fab)
light: EIVLTQSPGTLSLSPGERATLSCRASQSVSSSYLAWYQQKPGQAPRLLIYGASSRATGIPDRFSGSGSGTDFTLTISRLEPEDFAVYYCQQAIGFPQTFGQGTKVEIKRTVAAPSVFIFPPSDEQLKSGTASVVCLLNNFYPREAKVQWKVDNALQSGNSQESVTEQDSKDSTYSLSSTLTLSKADYEKHKVYACEVTHQGLSSPVTKSFNRGEC
heavy: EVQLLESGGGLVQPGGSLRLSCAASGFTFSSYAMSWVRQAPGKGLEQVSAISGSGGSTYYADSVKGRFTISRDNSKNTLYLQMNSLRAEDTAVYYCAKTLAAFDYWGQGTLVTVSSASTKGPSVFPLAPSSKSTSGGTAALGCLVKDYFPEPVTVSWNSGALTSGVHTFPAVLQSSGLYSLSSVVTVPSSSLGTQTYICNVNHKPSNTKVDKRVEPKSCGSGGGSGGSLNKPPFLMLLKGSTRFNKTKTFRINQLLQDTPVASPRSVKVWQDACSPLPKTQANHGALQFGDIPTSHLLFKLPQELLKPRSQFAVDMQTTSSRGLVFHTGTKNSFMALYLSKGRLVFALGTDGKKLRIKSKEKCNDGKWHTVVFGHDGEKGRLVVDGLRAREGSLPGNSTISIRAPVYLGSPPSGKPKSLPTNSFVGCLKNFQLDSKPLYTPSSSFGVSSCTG

Tests used:
laminin-111 = target: T4, laminin-111 (human, UniProt P25391 18-3075; P07942 22-1786; P11047 34-1609); assay: ELISA, GF coated, laminin 10 nM
T4 construct: Full-length recombinant human laminin isoform (BioLamina); Chain composition is read from the isoform name
Description: (§1) ELISA tests were performed as previously reported. In brief, ELISA plates (med-binding, Greiner Bio-One) were coated with 50 nM GFs at 37° C. for more than 2 hrs. […] Bound laminin was detected with rabbit anti-human laminin γ1 chain antibody (1:1000 dilution, Assay biotech) or rabbit anti-human laminin α3 chain antibody (1:1000 dilution, Assay biotech). After incubation with biotinylated anti-rabbit antibody for 60 min at room temperature (RT), HRP conjugated streptavidin (Jackson ImmunoResearch) was added. After 60 min of incubation at RT, 50 μL TMB substrate (Sigma-Aldrich) was added. The reactions were stopped by adding 25 μL of 2 N H₂SO₄. Subsequently, the absorbance at 450 nm was measured with a reference of 570 nm.

laminin-211 = target: T5, laminin-211 (human, UniProt P24043 23-3122; P07942 22-1786; P11047 34-1609); assay: ELISA, GF coated, laminin 10 nM
T5 construct: Full-length recombinant human laminin isoform (BioLamina); chains read from the isoform name
Description: as §1

laminin-332 = target: T6, laminin-332 (human, UniProt Q16787 28-1724; Q13751 18-1172; Q13753 22-1193, limits assumed); assay: ELISA, GF coated, laminin 10 nM
T6 construct: Full-length recombinant human laminin isoform (BioLamina); chains read from the isoform name
T6 sequence (Q16787 other isoform, or with tags, fused parts or gaps limits assumed, chain 1 of 3): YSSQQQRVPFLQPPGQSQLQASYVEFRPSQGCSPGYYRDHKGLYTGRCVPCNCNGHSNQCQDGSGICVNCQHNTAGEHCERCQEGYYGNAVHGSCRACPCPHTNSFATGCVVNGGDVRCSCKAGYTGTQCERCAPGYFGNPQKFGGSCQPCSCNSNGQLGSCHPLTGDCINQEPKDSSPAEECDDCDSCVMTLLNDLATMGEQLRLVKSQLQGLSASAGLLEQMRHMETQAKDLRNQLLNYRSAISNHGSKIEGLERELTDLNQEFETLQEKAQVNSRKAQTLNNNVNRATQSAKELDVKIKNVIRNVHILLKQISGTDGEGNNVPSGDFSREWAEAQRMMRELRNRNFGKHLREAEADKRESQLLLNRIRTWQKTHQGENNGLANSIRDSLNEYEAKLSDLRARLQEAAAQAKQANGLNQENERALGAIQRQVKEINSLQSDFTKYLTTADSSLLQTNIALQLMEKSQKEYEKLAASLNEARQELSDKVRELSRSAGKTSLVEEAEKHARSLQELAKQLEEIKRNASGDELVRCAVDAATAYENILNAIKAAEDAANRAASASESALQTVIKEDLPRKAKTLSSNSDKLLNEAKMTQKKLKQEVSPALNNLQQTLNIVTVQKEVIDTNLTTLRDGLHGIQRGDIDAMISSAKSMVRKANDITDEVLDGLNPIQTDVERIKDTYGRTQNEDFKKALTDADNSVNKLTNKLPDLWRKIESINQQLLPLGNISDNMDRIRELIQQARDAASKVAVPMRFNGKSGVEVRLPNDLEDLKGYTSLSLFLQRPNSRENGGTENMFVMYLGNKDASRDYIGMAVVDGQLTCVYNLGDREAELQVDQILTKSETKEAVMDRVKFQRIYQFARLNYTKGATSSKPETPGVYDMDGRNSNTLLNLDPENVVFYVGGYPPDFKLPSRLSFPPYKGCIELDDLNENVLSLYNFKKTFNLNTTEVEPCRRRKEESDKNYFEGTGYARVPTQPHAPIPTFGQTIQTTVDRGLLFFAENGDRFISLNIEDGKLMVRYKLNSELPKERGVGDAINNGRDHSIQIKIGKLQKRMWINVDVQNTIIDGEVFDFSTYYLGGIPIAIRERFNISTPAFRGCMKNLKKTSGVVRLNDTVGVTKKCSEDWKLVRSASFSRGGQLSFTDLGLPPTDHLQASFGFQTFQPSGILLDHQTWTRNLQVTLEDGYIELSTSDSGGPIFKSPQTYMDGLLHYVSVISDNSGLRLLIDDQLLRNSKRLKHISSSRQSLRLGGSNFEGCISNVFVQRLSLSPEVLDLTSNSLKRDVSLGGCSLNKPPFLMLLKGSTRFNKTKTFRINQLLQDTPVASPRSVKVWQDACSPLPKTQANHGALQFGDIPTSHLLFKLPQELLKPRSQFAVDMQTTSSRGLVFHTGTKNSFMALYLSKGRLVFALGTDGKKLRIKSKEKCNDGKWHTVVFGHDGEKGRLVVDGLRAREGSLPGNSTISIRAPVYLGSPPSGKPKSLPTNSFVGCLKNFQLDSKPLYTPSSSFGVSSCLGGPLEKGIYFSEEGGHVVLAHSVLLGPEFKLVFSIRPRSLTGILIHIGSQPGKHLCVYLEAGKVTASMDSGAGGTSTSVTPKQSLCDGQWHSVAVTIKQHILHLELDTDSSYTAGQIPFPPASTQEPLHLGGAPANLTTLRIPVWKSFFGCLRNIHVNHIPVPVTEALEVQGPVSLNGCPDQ
T6 sequence (Q13751 18-1172 limits assumed, chain 2 of 3): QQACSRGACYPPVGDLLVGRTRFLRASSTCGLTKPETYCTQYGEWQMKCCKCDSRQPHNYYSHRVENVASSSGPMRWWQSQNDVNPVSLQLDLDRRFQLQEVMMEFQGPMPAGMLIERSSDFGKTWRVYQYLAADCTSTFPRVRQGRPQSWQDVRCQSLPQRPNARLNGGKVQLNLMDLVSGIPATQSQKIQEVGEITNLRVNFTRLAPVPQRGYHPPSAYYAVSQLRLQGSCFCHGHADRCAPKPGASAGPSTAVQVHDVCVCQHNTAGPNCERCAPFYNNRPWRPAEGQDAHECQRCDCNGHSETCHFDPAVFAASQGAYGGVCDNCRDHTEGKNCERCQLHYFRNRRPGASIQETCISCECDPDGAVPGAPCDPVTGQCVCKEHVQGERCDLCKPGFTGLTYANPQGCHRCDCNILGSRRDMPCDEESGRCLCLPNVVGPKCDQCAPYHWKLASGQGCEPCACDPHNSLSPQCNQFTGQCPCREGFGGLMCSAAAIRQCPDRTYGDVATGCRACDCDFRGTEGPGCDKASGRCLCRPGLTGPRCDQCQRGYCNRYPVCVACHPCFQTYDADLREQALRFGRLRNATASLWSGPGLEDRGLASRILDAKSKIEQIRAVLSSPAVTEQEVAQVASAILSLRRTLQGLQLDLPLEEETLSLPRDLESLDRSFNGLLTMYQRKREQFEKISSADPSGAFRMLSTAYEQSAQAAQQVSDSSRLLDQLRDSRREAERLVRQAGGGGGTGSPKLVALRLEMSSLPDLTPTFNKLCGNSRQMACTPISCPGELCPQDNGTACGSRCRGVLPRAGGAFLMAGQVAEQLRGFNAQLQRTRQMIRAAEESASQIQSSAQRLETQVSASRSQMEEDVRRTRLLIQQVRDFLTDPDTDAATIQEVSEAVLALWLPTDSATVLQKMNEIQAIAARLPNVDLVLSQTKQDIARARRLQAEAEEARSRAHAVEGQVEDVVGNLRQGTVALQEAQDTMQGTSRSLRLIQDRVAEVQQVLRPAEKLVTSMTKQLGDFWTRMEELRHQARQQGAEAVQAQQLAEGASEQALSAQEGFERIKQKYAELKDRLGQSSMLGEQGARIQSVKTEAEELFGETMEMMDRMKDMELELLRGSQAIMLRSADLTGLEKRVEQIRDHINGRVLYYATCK
T6 sequence (Q13753 22-1193 limits assumed, chain 3 of 3): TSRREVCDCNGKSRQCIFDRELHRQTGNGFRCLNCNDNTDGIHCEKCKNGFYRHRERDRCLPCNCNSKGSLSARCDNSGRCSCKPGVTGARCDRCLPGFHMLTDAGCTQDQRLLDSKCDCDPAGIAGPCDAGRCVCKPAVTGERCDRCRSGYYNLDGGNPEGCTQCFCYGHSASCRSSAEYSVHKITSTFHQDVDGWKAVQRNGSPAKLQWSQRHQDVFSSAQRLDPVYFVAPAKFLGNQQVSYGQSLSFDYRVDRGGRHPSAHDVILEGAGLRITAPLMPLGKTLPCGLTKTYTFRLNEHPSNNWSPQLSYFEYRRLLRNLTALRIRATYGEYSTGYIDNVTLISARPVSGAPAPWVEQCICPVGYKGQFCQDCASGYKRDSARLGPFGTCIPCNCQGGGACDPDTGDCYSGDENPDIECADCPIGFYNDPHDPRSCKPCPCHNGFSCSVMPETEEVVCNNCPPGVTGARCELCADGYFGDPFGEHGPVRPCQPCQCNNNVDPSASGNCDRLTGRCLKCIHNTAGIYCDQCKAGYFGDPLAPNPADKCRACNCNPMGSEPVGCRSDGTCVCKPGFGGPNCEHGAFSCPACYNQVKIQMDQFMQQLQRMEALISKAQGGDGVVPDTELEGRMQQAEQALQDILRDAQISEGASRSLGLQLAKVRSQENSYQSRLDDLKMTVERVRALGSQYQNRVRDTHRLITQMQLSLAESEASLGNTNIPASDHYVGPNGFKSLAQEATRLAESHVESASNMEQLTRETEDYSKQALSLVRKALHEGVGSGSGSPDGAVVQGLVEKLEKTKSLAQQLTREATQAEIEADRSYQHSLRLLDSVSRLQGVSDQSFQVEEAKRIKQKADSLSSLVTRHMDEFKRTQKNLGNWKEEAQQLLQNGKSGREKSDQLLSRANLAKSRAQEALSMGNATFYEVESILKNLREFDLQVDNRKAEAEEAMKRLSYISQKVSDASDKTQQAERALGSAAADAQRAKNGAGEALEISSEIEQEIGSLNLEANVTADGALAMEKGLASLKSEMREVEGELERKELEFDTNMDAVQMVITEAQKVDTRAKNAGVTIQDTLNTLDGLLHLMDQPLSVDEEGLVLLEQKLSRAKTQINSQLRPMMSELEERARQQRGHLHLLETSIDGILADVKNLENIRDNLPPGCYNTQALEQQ
Description: as §1

laminin-411 = target: T7, laminin-411 (human, UniProt Q16363 25-1823; P07942 22-1786; P11047 34-1609); assay: ELISA, GF coated, laminin 10 nM
T7 construct: Full-length recombinant human laminin isoform (BioLamina); chains read from the isoform name
Description: as §1

laminin-421 = target: T8, laminin-421 (human, UniProt Q16363 25-1823; P55268 33-1798; P11047 34-1609); assay: ELISA, GF coated, laminin 10 nM
T8 construct: Full-length recombinant human laminin isoform (BioLamina); chains read from the isoform name
Description: as §1

laminin-511 = target: T9, laminin-511 (human, UniProt O15230 36-3695; P07942 22-1786; P11047 34-1609); assay: ELISA, GF coated, laminin 10 nM
T9 construct: Full-length recombinant human laminin isoform (BioLamina); chains read from the isoform name
Description: as §1

laminin-521 = target: T10, laminin-521 (human, UniProt O15230 36-3695; P55268 33-1798; P11047 34-1609); assay: ELISA, GF coated, laminin 10 nM
T10 construct: Full-length recombinant human laminin isoform (BioLamina); chains read from the isoform name
Description: as §1

[1] = target: T1, recombinant laminin α3 2928-3150 …; assay: ELISA, LG domain protein coated
Description: Affinity of GFs against recombinant laminin LG domains. ELISA plates were coated with 1 μg/mL (A) α3₂₉₂₈₋₃₁₅₀, (B) α4₈₂₆₋₁₈₁₆, or (C) α5₃₀₂₆₋₃₄₈₂ and further incubated with 1 μg/mL of VEGF-A165, VEGF-A121, PlGF-2, PlGF-1, PDGF-BB, or FGF-2 solution. Bound GFs were detected using a specific antibody for each GF (n=4, mean±SEM). Statistical analyses were done using the Mann-Whitney U test by comparing the signals obtained from the laminin domain- and the BSA-coated wells. *p<0.05, **p<0.01. […] A SPR chip was functionalized with the laminin α3₂₉₂₈₋₃₁₅₀ recombinant protein (˜1000 RU), and each GF was flowed over the chip at indicated concentrations. Curves represent the specific responses (in RU) to laminin. Experimental curves were fitted with Langmuir binding kinetics.
(§2) ELISA tests were performed as described above. […] 1 μg/mL of BSA served as non-binding protein control. After blocking with 2% BSA PBS-0.05% Tween 20 (PBS-T) solution, 1 μg/mL of the recombinant human proteins (VEGF-A121, VEGF-A165, PlGF-1, PlGF-2, PDGF-BB or FGF-2) or 10 μg/mL of biotinylated heparin (Sigma-Aldrich) were added. Bound GF was detected with biotinylated antibodies for human VEGF, PlGF, PDGF-BB, or FGF-2 (R&D Systems). The antibodies were detected by streptavidin-HRP (R&D Systems).

human plasma-derived vWF = target: T11, human plasma-derived vWF (human, UniProt P04275 764-2813); assay: ELISA, GF coated 50 nM, vWF 1 µg/mL
T11 construct: mature; also called plasma-derived purified vWF; von Willebrand factor
Description: ELISA tests were performed as previously reported1. In brief, ELISA plates (med-binding, Greiner Bio-One) were coated with 50 nM GFs at 37° C. for 2 hrs. […] Then, HRP conjugated goat anti-rabbit antibody (Jackson ImmunoResearch) was added. After 60 min of incubation, 50 μL TMB substrate (Sigma-Aldrich) was added. The reaction was stopped by adding 25 μL of 2N H2SO4. Subsequently, the absorbance at 450 nm was measured and subtracted the absorbance at 570 nm.

[2] = target: T12, recombinant human vWF A1 domain (human, UniProt P04275 1261-1468, limits assumed); assay: ELISA; recombinant vWF A1 domain coated (10 µg/mL, legend paragraph 67), GF in solution, detected with anti-PlGF antibody [panel B]
T12 construct: domain: A1; also called vWF A1 recombinant protein; recombinant A1 domain
Description: FIGS. 18A-C. […] Bound GFs were detected using a specific antibody for each GF (n=4, mean±SD). Statistical analyses were done using ANOVA with Tukey's test or Student's t-test. *p<0.05, **p<0.01.
ELISA tests were performed as described above. […] After blocking with 2% BSA solution containing PBS-T, 1 μg/mL of the recombinant human proteins VEGF-A121, VEGF-A165, PlGF-1, PlGF-2, PDGF-BB, FGF-2, CXCL-12α and CXCL-12γ were added. 1 μg/mL of BSA served as non-binding protein control. Bound GF or chemokine was detected with biotinylated antibodies for human VEGF-A, PlGF, PDGF-BB, FGF-2, or CXCL-12 (R & D Systems). The antibodies were detected by streptavidin-HRP (R & D Systems). Color development and the absorbance measurement were done as described above.

recombinant human BMP-2 = target: T13, recombinant human BMP-2 (human, UniProt P12643 283-396); assay: ELISA, rhBMP-2 coated 50 nM, binder 50 nM
T13 construct: also called rhBMP-2
T13 sequence (P12643 283-396 limits assumed): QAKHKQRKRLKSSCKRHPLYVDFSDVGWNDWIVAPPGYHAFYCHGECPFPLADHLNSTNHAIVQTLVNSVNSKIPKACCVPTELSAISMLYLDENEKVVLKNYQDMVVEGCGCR
Description: ELISA plates (NUNC MaxiSorp) were coated with 50 nM of recombinant human BMP-2 (CHO produced, R&D Systems, Minneapolis MN, USA) overnight at room temperature.

bovine type I collagen = target: T14, bovine type I collagen (bovine, UniProt P02453 178-1191; P02465 89-1102); assay: ELISA, collagen I coated, 0.01-30 nM binder
T14 construct: PureCol, Advanced BioMatrix; coated on the plate; also called collagen I; PureCol
Description: ELISA plates (NUNC MaxiSorp, ThermoFisher Scientific) were coated overnight with 10 μg/mL of bovine type I collagen (PureCol, Advanced BioMatrix, San Diego CA, USA) at room temperature. The plate was further blocked using 2% bovine serum albumine (BSA) for 2 h at room temperature. […] The plate was washed thrice in PBST, and an horseradish peroxidase-conjugated anti-human Fab antibody (Jackson ImmunoResearch,) was used to detect bound FabCol variants. […] Absorbance at 450 nm was read using […], and corrected using the absorbance at 570 nm. Curve fits and dissociation constant KD were computed using Prism (GraphPad Software Inc., USA).

[3] = target: B1; assay: ELISA; growth factors coated at 100 nM, FabCol variants at 100 nM in solution, HRP-anti-human Fab [panel F]
[4] = target: T2, placental growth factor (PlGF)-2; assay: as above
[5] = target: T15, platelet-derived growth factor (PDGF)-BB (human, UniProt P01127 82-190); assay: as above
T15 construct: mature; Purchased in mature form
T15 sequence (P01127 82-190): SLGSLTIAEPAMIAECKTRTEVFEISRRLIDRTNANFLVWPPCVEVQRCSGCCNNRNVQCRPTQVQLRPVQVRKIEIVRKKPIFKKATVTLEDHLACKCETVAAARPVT

[6] = target: T16, vascular endothelial growth factor (VEGF)-A165 (human, UniProt P15692-4 27-191); assay: as above
T16 construct: mature; Purchased in mature form, not glycosylated

[7] = target: T3, vascular endothelial growth factor …; assay: ELISA, peptide coated
Description: (§3) (A) The location of laminin-derived peptides in the LG domain of laminin α3, α4, and α5 chains. (B-F) Affinity of heparin and GFs against chemically synthesized peptides derived from the LG domain of laminin α3, α4, and α5 chains. ELISA plates were coated with 10 μg/mL laminin peptide and further incubated with (B) biotinylated heparin, (C) VEGF-A165 and VEGF-A121, (D) PlGF-2 and PlGF-1, (E) PDGF-BB, or (F) FGF-2. Concentrations were 1 μg/mL for GFs and 10 μg/mL for heparin. Bound heparin was detected with streptavidin, and bound GFs with a specific antibody for each GF (n=4, mean±SEM). Statistical analyses were done using the Mann-Whitney U test by comparing the signals obtained from the laminin peptide- and the BSA-coated wells. *p<0.05, **p<0.01.
as §2

[8] = target: B1; assay: ELISA, peptide coated
Description: as §3, §2

[9] = target: T16, vascular endothelial growth factor …; assay: ELISA, peptide coated, GF 1 µg/mL
Description: as §3, §2

[10] = target: T2, placental growth factor (PlGF)-2; assay: ELISA; peptide coated (10 µg/mL, legend paragraph 53), GF in solution, BSA-coated wells as control [panel D]
Description: as §3, §2

[11] = target: T15, platelet-derived growth factor (PDGF)-BB; assay: ELISA; peptide coated (10 µg/mL, legend paragraph 53), GF in solution, BSA-coated wells as control [panel E]
Description: as §3, §2

B1
binding result (laminin-111): no binding (tested: A450 0.1)
binding result (laminin-211): no binding (tested: A450 0.1)
binding result (laminin-332): no binding (tested: A450 0.1)
binding result (laminin-411): no binding (tested: A450 0.1)
binding result (laminin-421): no binding (tested: A450 0.1)
binding result (laminin-511): no binding (tested: A450 0.1)
binding result (laminin-521): no binding (tested: A450 0.1)
binding result [1]: no binding (tested: 1 µg/mL)
binding result (human plasma-derived vWF): no binding
binding result [2]: no binding (tested: 1 µg/mL PlGF-1 (single concentration))

B2
binding result (recombinant human BMP-2): binds
Kd (bovine type I collagen): ~2.3 nM
binding result [3]: no binding (tested: 100 nM (single concentration))
binding result [4]: binds
binding result [5]: binds
binding result [6]: binds

KNSFMALYLSKGR (Chemically synthesized (Genscript)) [laminin α3 3031-3043 peptide (LG4)]
binding result [7]: no binding (tested: 1 µg/mL)
binding result [8]: no binding (tested: 1 µg/mL)
binding result [9]: binds
binding result [10]: no binding (tested: 1 µg/mL PlGF-2 (single concentration))
binding result [11]: no binding (tested: 1 µg/mL PDGF-BB (single concentration))
